Experimental findings from PMC7026628 are described below.

Series [1] addresses T1, EV71-C 3Dpol WT (Enterovirus 71 strain …, UniProt M4QLY4 1732-2193). Description: fluorescence polarization; 5 mM Mg2+; FP: 50 mM potassium glutamate pH 7.5, 50 mM arginine, 5 mM DTT, 5 mM MgCl2, 30 mM NaCl, 5% glycerol, 25 nM RNA, room temperature, at least 60 min. EC assembly:
Series [2] concerns the target T1, EV71-C 3Dpol WT. Description: crystal structure; ddCTP-soaked elongation complex; FP: 50 mM potassium glutamate pH 7.5, 50 mM arginine, 5 mM DTT, 5 mM MgCl2, 30 mM NaCl, 5% glycerol, 25 nM RNA, room temperature, at least 60 min. EC assembly:
For series [3], the target named is T1, EV71-C 3Dpol WT. Description: crystal structure (1.8 A); five Mg2+; elongation complex; FP: 50 mM potassium glutamate pH 7.5, 50 mM arginine, 5 mM DTT, 5 mM MgCl2, 30 mM NaCl, 5% glycerol, 25 nM RNA, room temperature, at least 60 min. EC assembly:

B1: T31/P8F (structured_RNA)
RNA 1: GGGAGAUGAAAGUCUCCAGGUCUCUCGGAAA
RNA 2: UGUUCCGA
Molecule B1 had a Kd with EV71-C 3Dpol WT [1] of 180 nM.

B2: T31/P12 + ddCMP (structured_RNA)
RNA 1: B1 RNA 1
RNA 2: UGUUCCGAGAGAC
modifications: 3'-terminal 2',3'-dideoxy-C on product strand
For B2, the binding result with EV71-C 3Dpol WT [2] was “binds”.

B3: T31/P12 (T31/P8 after GAGA incorporation) (structured_RNA)
RNA 1: B1 RNA 1
RNA 2: UGUUCCGAGAGA
Consider B3, for which the binding result with EV71-C 3Dpol WT [3] was “binds”.
